# Data as given in publication PMC2566879.
# What was measured:
# [1] = molecular target: histone H3/H4 tetramer coupled to the SPR sensor chip (UniProt P84229); assay: SPR
# [2] = molecular target: histone H1 coupled to the SPR sensor chip (UniProt P02253); assay: SPR
# Sequence of UniProt P02253 (P02253 whole entry): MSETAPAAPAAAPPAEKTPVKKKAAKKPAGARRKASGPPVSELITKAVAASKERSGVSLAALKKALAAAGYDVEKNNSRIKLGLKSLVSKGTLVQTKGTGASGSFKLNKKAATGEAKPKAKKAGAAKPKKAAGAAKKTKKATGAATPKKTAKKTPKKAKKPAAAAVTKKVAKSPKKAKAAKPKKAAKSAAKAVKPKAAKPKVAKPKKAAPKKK
substance,measurement,setting,value
"recombinant human somatic NASP (nuclear autoantigenic sperm protein), NH2-terminal 6His tag (from UniProt P49321-2 1-449) (natural protein)",Kd,[1],237 nM
same,koff,[1],0.000691 s⁻¹
same,kon,[1],2920 M⁻¹ s⁻¹
same,Kd,[2],13.8 nM
same,koff,[2],0.000198 s⁻¹
same,kon,[2],14400 M⁻¹ s⁻¹
